Reference: article doi:10.1101/2025.08.13.669063

Tests used:
[1] = biological target: cobalamin binding domains of Thermus thermophilus CarH (TtCBD) (Thermus thermophilus); test: time-resolved X-ray solution scattering
[2] = biological target: cobalamin binding domains of Thermus thermophilus CarH (TtCBD) (Thermus thermophilus); test: crystal structure

In the case of “cobalamin binding domains of Thermus thermophilus CarH (TtCBD) (domain or fragment)”, the stoichiometry N [1] is reported as 4, the time constant of tetramer dissociation after photoexcitation [1] is reported as 620 ms and the stoichiometry N [2] is reported as 4.
